# Data as given in the NTF2 design screens of Basanta et al. (2020).
# Experiment: protease stability score; higher = more stable; yeast display proteolysis, trypsin and chymotrypsin;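 further: relative to predicted unfolded state with 0 unfolded-like and 1 meaning tenfold more protease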
row,Sequence,protease stability score
1,DEEERDAEEVFRKFMRDVFTGNWDHIHEMFDPHARSSIQVDGRHIELHGRDELTRIFIWLGVDHIELKHVHIQGEKVISIGIVRYNGKHTHLEVYLRKVDGRWIIHSVHVRIR,1.67
2,SEEERQLHEFAELIVHDLLTGNFELLSSLLDPHARMEINGKRFHGWTQILDILHRIWLHLRIRDRQVRRVEVYNGRINSRIEVDGEINGRRISLDELLILVVVDGRIRSESIHFE,1.03
3,DEDEKRARHALTLLVHSFLTGNFEFTTELLDPHYKLHVGEKTYIGRKAIKEWIREFHERIPNIKLKDITIEHMTWVGEKVVVHSRVEGEVDGKEMFLQVEIIMEKVNGRWIVHSIHMN,2.01
4,SDLDRLLEEMAKRFVEVMLTGDEEIMKELIDPNARVDWDGVEIHGWKEISEWLKEEIERQENYRYEFEFRDLDVIGNKAVFFTDLHFNINGRRIRTHSVYKVNVVNGKVKHVHVEIR,1.21
5,DEDKEHIDRSLEELRRSWKTGNEEDVLRLADPHVKMIYNGRHHIGRENFEEALKILLERVDHWEDFRITDRHRQGDKVELDVESEGLVNGVTKRTEMIFIILKIDGRWLLHSLEIR,0.724
6,SEDEQDAHKWLQLFIDFLKTGDEELMEKFLDPTVRSRVGDKETHGREMLVLHLLFLGVDHIHFRHVEERVYNGRVLLIITILIRVGDKHVETEIRVEIDKINGRWLAETIHIRIR,0.778
7,SELEETLKRSYELLSRILETGDEHRLKSLADPHTRMDFNGVEVHGMHLTVQWMKEFGADHEQYEVRIKRLDVQGDKLHSHGLLIIRIFINGRTIDLKIETHMHAEKIDGRWVIREIIWR,1.36
8,SEEDRSSREAVEIYIWIIETGDEHLMEEFLDPHVRSHQGEFHSHGREVAHVYVKKFKNLKVRVREVRTQGDKVIIISEMRIGDFRLELTIIIWKYNGKWIVQEVDIK,1.67
9,DEWDEKLHHFFELMSHAMETGDEHMQDELADPHVRLIINGVDYIGRERFREMVKRVDYFSVRDIHFKDKEIQGDFIHFRGTLNGEEIINGVRIEKEVDFKLLILKVDGRWFLESEERR,0.668
10,SEEEKIVDERIKILLESWDTGDWDSFIKMLDPNALSIVGEFVMHGRETVVDALDKLLKKLGVKMETHDTEHFEIYGNKARLETTIHLRVGDFHFKRRTRVHMEKVDGQWFITIYESG,1.31
11,DEEERLLEELARLFLHLWRTGDEDTMLHLADPNTRSRINGVEQHGMELTNKFLEELLRHIRIKHLKITHSYAFDGRVFMHTLMHRTVDGKEETVWVEIILVVFNGKLKEYEVRFK,1.3
12,SEDDEDNERWFERLLHSLHTGNEELTRKLMDPNVRVDFNGKDLHGMDHMVKLVRHLRNRVDHLHMLVHHSDNINGVAHNDVTLELRYGDKTERLRVRIVASKVDGRWILKSVEID,1.28
13,DEEEKISKEATDNFIREFETGNEEDLMKNMDPNARLIQGDKHNHGRDEASRFLVELLRDLGFKHIRLTHVRIIDGRVWVHSDLHFNGVEFKQDVIFTKINGKWTLKSLTIK,1.13
14,DEDEEDAHRAVQKLTEVINTGDWETFEKFADPNTRFEYGNFHIHGREVIRHFWLHEVEKFKNITIFIRHVQVINGRVESHGENRFNGKSYHFHIIFRKFNGRWHLERIHLE,1.61
15,DDNEELTERFMKHLIRAQQTGDWERLKELFDPNTRLIVGEKHVVGREHFINEWLEHHNKLGIDHSQIELHNLRIINGKAHIDGHFIEEFNGKRIEIRIEVVIVKINGRWLIKEIHFI,1.44
16,DTDKKHIQNVLRLLSTLEHTGDWEALKELADPNVRVVVNGQEIHGRDMFNKHFEELRINDSRMILRDFEVQGDKIHVEGEVEFDGIIDGREKRFVRHVRIINVKIDGRWVIREIQVR,1.62
17,DEEDEDARVALEEVMRSQITGDEEKSEKLIDPHVRLEIGDKIYHGRELVVRVEHELGVKHIEPKKVEMQGDWIDLHGVIVYGDKKIHQTLHLLKFNGKWLIKEIRIK,1.6
18,SEQEKELQDALEILMHRWLTGDEDFLYEMMDPNVRFTINGQDFHGRDFFRQKWKELGLTRVEIDLKFVRLQGDKATVHGHINFNGRTTDVIMYIDKVNGVWITKTIEFR,2.17

row,Sequence,protease stability score
1,DEEDRHAEEVFRTLIHAWHTGDEDTLKRMLDPDVKILIGDKDHHGRDFFAREMHEISKHLRVHFELHELDVINGRVHVHGTLVITINGREIRITVHIHVLIVDGRVKLQKWIKV,0.583
2,SEIQHELSEMMKIVIHQFLTGDEEEFRHLVDPNVKFIFNGRLLIGWKSLSDFLKEHLERVDHWHVEIKRVRVYDGRLDISGRLRLVQGDKEHNLDVRMHLETIDGKITSVEIRVH,1.28
3,NHEEEHAKTLFEEWLRVLLTGDWKMFSHLADPHTRIHIGNKDIHGRDLFVELVIRELEEIRVILIVEELSAQGDKSRMRTRLIIRQGEFEHRTELRLEIVFVDGKFTSIHLRHK,0.599
4,SEDEELVERAIRWLESILQTGDEHVLEHFADPHVRVTVGDYDDHGRHAIHTVWRLMGVNHSEIKRKDIQVVNGVIYIHLDGVSRVNGRNFKLSIHVILEKIDGRWHVRTLHVDIK,1.05
5,SEYEDLIKTALHLWHEIFLTGNEDVLHRLIDPHVRVTFNGVRNHGRDYLLHHIEELGMEHHNFDISHVDMQGDKIILYTFLHAHVNGRTTSFQLHIFWIKVNGRWIVKRVEIR,0.759
6,DEEEEKAKHVLELWSRAMLTGDEDEYKKLADPHTRLIVDGQTFHGWENFTKSHNQIKNIKIDDVHVENHHIQGNKMFVDLRFEMEFNGRILHKETHLFIEKIDGKWLIRTQEIH,0.767
7,SEDEKTWHKLMEDHIKDWITGNEEKLEENADPHARFELHVGDKRITDHGRDFIEHWVDRIKNLRIELHDFEIQGNKVHLDVRVNVNGVHEIVTIIVIVIDGKLHSLHIHVEIR,-0.08
8,SEDEEKASEVARRFVRSLATGDFDTLTRLMDPNYKHVYGDKEFVGREVIREHLEELRLHFEDNKVKHVRVIGDKIDTDMEVRFTVEFDGVRVHHEMKVEFRILKINGRWFLEFTIIR,0.337
9,NERKKFIEELARLYFKWWLTGDFENLLRNADPNTRIDVNGREIIGREKFVEELREHVDKFKNIREDLHDMDLQGDKVILHIRMNVDGKTIEVRVEIFVINGQIRSESWRFE,1.34
10,SEEERLAEHYYRETIELITTGDWRKLLELFDPDARLVIGDKTYHGMDTIIKIWEELRMHIRDVHFHHVSVIDGRIHLDVVVDVTKNIDGVRIRTTHRVHIIMEKIDGKWFVREIRIK,2.38
11,SEDERDAKRAEEEFKRHVETGDEKMLREMMDPHVRFEIGDKEFIGWNFAEKLHLDLIERIDHEELILRHINVVNGKVDSDVELRVHVDGVTIIVRTRIISKKIDGRWLIRSIIIH,0.695
12,DEEERYIIEMLRILAEAILTGDEDETHNQLDPDVRIEWNGVELHGRDELLRFMHHLRIDIKRVEFRSITKVDGRVHTDGLLDVTYFIDGRVFRRRTHTELIILKVDGRWTFHSIKID,2.19
13,DEEEEFYEKMFRLWFELLLTGDESTLIKLLDPHVRIDFNGRELIGWFYLSHFMREFRHRFDHVEIIIRRVTVIDGVARSDLELRVNINGKDHTVKTEVHIRVVNGRMKSLEFHIK,0.965
14,DEKHEFARRYYELEKKYLKTGDEEEWLKYVDPHVRVHVGDKDLVGMELAEEQWREIRYHHIDDKDMRIQGDKLHVKGRVDGTIGDKRHRVDMEVHIEIIDGRFKRIEVRIK,0.76
15,SEIDHILKLLAELWIRLWLTGDEEIIEELADPNVRLDINGKDAHGWERLSEVLRLEIKEMRIDHHRLREIRVQGNKSEVDGRLRGTFNGKHREVDVHIEIEVVNGRFKRIRIEFR,1.42
16,DEDKHLARHLVDLIWESLKTGNEKLSKSLADPNVRIIVGDKEVVGRERVEKWLEKVMHEIRVKDLDERHVDVQGDKVNVYVDIHGNFDGKDDTTHFYFDIKKVNGVWLIERYEVH,0.958
17,DDHSSARKFADEFREMMKTGDSTKADELFDPNVRVEVGDKRYHGREQAVDWIRHLVDRYDHIEIRIDHITVRGDRISIVFTVHYEKNGETTYDRYVMVAVDRNGRAQIKMLRKG,2.09
18,DEVEKFSRDMLHFVRHLWETGDPHLFSRLADPHAQVHIGDKRLHGREEFEKHIEEMIERFPGIRLNLRHFEVQGDKMLVNFEIRVGEKNFTIHLEARKINGRWYIESVEVR,0.894
